In US20220380463A1 (Adimab, published 2022):
Substitutions are numbered along the chain they refer to.

B1: SAD10319_P01_E02 (ADI-57304) (antibody, V domains shown)
VH: QVQLVQSGAEVKKPGASVKVSCKASGYTFTSDFMHWVRQAPGQRLEWMGWINPATGATKYSQKFQGRVTITRDTSASTAYMELSSLRSEDTAVYYCARDAYGHYFYDHWGQGTLVTVSS
VL: DIVMTQSPDSLAVSLGERATINCKSSQSLLNARTGKNYLAWYQQKPGQPPKLLIYWASTRESGVPDRFSGSGSGTDFTLTISSLQAEDVAVYYCKQSYSRRTFGGGTKVEIK
notes: IgG; also called Ab240
B2: SAD10319_P02_E04 (ADI-57311) (antibody, V domains shown)
VH: QVQLVQSGAEVKKPGASVKVSCKASGYTFESYYMHWVRQAPGQRLERMGSIVAGTGATKYSQKFQGRVTITRDTSASTAYMELSSLRSEDTAVYYCARDHYGRYFYDVWGQGTPVTVSS
VL: B1 VL
notes: IgG; also called Ab252
B3: SAD10319_P02_F04 (ADI-57312) (antibody, V domains shown)
VH: B1 VH with T30D, D32Y, F33T, W50Y, A54D, K59Y, G102H, H108V
VL: B1 VL
notes: IgG; also called Ab253
B4: SAD10319_P02_A06 (ADI-57320) (antibody, V domains shown)
VH: B2 VH with E30D, S31A, Y33A, R47W, S50W, V52D, R103H, P114L
VL: B1 VL
notes: IgG; also called Ab8
B5: SAD10319_P02_C06 (ADI-57322) (antibody, V domains shown)
VH: B1 VH with D32Y, F33A, A54V, K59V, H108V
VL: B1 VL
notes: IgG; also called Ab10
B6: SAD10319_P02_E06 (ADI-57323) (antibody, V domains shown)
VH: B1 VH with T30A, S31D, D32Y, F33A, E46A, A54H, K59F, H103R
VL: B1 VL
notes: IgG; also called Ab12
B7: SAD10319_P02_F06 (ADI-57324) (antibody, V domains shown)
VH: B1 VH with T30L, D32Y, F33A, W47R, A54S, K59D, H108V
VL: B1 VL
notes: IgG; also called Ab13
B8: SAD10319_P02_H06 (ADI-48633) (antibody, V domains shown)
VH: B1 VH with S31A, D32Y, F33V, W50S, N52D, P53A, A54G, A57N
VL: B1 VL
notes: IgG; also called Ab16
B9: SAD10319_P04_B10 (ADI-57332) (antibody, V domains shown)
VH: B1 VH with D32T, W50F, N52D, P53A, A54G
VL: B1 VL
notes: IgG; also called Ab30
B10: SAD10319_P04_G10 (ADI-57334) (antibody, V domains shown)
VH: B1 VH with S31D, D32Y, F33Y, K59A, Y104H, H108V
VL: B1 VL
notes: IgG; also called Ab32
B11: SAD10320_P01_E02 (ADI-57349) (antibody, V domains shown)
VH: QVQLVQSGAEVKKPGASVKVSCKASGFNIKDYYMHWVRQAPGQRLAWMGWIDLENANTIYDAKFQGRVTITRDTSASTAYMELSSLRSEDTAVYYCARDAYGRHFYDVWGQGTLVTVSS
VL: B1 VL
notes: IgG; also called Ab55
B12: SAD10320_P01_A03 (ADI-57353) (antibody, V domains shown)
VH: B11 VH with A46E, A100H, Y101R, H104Y
VL: B1 VL with Y98S, S99H
notes: IgG; also called Ab60
B13: SAD10320_P01_B03 (ADI-57354) (antibody, V domains shown)
VH: B11 VH with A46E, E89D, A100Q, Y101H, H104Y
VL: B1 VL
notes: IgG; also called Ab61
B14: SAD10319_P01_F03 (ADI-48627) (antibody, V domains shown)
VH: B1 VH with T30E, D32Y, F33D, P53A, A54G, K59V, G102H, H108V
VL: B1 VL
notes: IgG; also called Ab246
B15: SAD10319_P02_A05 (ADI-48629) (antibody, V domains shown)
VH: B1 VH with T30D, D32Y, F33A, A54N, K59T, A100H, H108V
VL: B1 VL
notes: IgG; also called Ab255
B16: SAD10319_P02_E05 (ADI-48630) (antibody, V domains shown)
VH: B1 VH with T30D, D32Y, F33I, N52D, P53A, A54G, K59V
VL: B1 VL
notes: IgG; also called Ab4
B17: SAD10319_P02_D06 (ADI-48631) (antibody, V domains shown)
VH: B1 VH with S31D, D32Y, F33A, P53A, A54G, K59I, G102H, H108V
VL: B1 VL
notes: IgG; also called Ab11
B18: SAD10319_P02_G06 (ADI-48632) (antibody, V domains shown)
VH: B1 VH with D32Y, F33A, A54D, K59V, G102H, H108V
VL: B1 VL
notes: IgG; also called Ab15
B19: SAD10319_P02_H06 (ADI-48633) (antibody, V domains shown)
VH: B1 VH with S31A, D32Y, F33V, W50S, N52D, P53A, A54G, A57N
VL: B1 VL
notes: IgG; also called Ab16
B20: SAD10319_P03_C07 (ADI-48634) (antibody, V domains shown)
VH: B2 VH with Y33D, R47W, S50W, V52D, K59T, H100A, G102H, R103H, P114L
VL: B1 VL
notes: IgG; also called Ab17
B21: SAD10319_P03_E07 (ADI-48635) (antibody, V domains shown)
VH: B2 VH with Y33D, R47W, S50W, V52D, K59T, H100A, G102H, R103H, P114L
VL: B1 VL
notes: IgG; also called Ab17
B22: SAD10319_P03_A08 (ADI-48636) (antibody, V domains shown)
VH: B2 VH with E30T, S31D, Y33D, R47W, S50W, V52D, A57L, R103H, P114L
VL: B1 VL
notes: IgG; also called Ab230
B23: SAD10319_P03_E08 (ADI-48637) (antibody, V domains shown)
VH: QVQLVQSGAEVKKPGASVKVSCKASGYTFNDYAMHWVRQAPGQRLEWMGYINGTGATVYSQKFQGRVTITRDTSASTAYMELSSLRSEDTAVYYCARDAYHHYFYDVWSQGTLVTVSS
VL: B1 VL
notes: IgG; also called Ab21
B24: SAD10319_P03_G08 (ADI-48638) (antibody, V domains shown)
VH: B1 VH with T30S, D32Y, F33D, N52D, P53A, A54G, A57F
VL: B1 VL
notes: IgG; also called Ab22
B25: SAD10319_P03_B09 (ADI-48639) (antibody, V domains shown)
VH: B1 VH with S31E, D32Y, F33D, N52D, P53A, A54G, K59V, H103R
VL: B1 VL
notes: IgG; also called Ab24
B26: SAD10319_P03_E09 (ADI-48640) (antibody, V domains shown)
VH: B1 VH with T30L, D32Y, F33D, N52D, P53A, A54G, K59T, G102H, H108V
VL: B1 VL
notes: IgG; also called Ab26
B27: SAD10319_P04_G11 (ADI-48641) (antibody, V domains shown)
VH: QVQLVQSGAEVKKPGASVKVYCKASGYTFTTYEMHWVRQAPGQRLEWMGSINAGDANTKYSQKFQGRVTITRDTSASTAYMELSSLRSEDTAVYYCARDAYHHYFYDVWGQGTLVTVSS
VL: B1 VL
notes: IgG; also called Ab39
B28: SAD10319_P04_E12 (ADI-48642) (antibody, V domains shown)
VH: B2 VH with E30T, Y33P, R47W, S50W, V52D, A57L, K59T, G102H, V108M, P114L
VL: B1 VL
notes: IgG; also called Ab43

Biological target: T1, Cynomolgus CD3εδ Fc heterodimer (Cy CD3ε Fc / CD3δ Fc-HIS) (cynomolgus, UniProt Q95LI8 22-100)
T1 chain 1: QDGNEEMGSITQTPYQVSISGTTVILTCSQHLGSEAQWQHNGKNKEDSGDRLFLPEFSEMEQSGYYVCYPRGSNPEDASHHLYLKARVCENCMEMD
T1 chain 2: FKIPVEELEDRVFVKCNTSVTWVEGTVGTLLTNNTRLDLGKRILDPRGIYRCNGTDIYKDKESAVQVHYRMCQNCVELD
Assay: BLI (Octet), IgG on AHC sensor, pH 6.0

Binder	koff [s⁻¹]
B1	0.0248
B2	0.0215
B3	0.0317
B4	0.0327
B5	0.023
B6	0.00251
B7	0.0122
B8	0.0188
B9	0.0127
B10	0.015
B11	0.00585
B12	0.0271
B13	0.0204

Biological target: T1, Cynomolgus CD3εδ Fc heterodimer (Cy …)
Assay: BLI (Octet), IgG on AHC sensor, pH 7.4

Binder	Kd [nM]	koff [s⁻¹]	kon [M⁻¹ s⁻¹]
B1	145	0.0355	245000
B2	64.1	0.0208	324000
B3	117	0.0301	257000
B4	30.2	0.0115	383000
B5	51.3	0.0255	496000
B6	60.6	0.0267	440000
B7	134	0.0331	247000
B8	78	0.0171	220000
B9	58.8	0.0199	338000
B10	62.6	0.0182	291000
B11	68.6	0.0208	304000
B12	78.4	0.0174	222000
B13	75.1	0.0159	212000

biological target: T2, human CD3 on CD3+ Jurkat cells (human, UniProt P07766 23-207); assay: flow cytometry, 100 nM IgG on CD3+ Jurkat cells, pH 6.0
T2 construct: whole, on cells; Native CD3 complex on cells; the other CD3 chains are not specified for this assay; also called Human CD3+ Jurkat
In short: (§1)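 Jurkat cells incubated 20 min on ice with 100 nM yeast-produced IgG in PBS + 0.1% BSA at pH 6.0 or pH 7.4, with all washes and staining at the same pH. Bound antibody detected with anti-human IgG-RPE, dead cells excluded by propidium iodide; MFI measured by flow cytometry.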

T2 sequence (P07766 23-207): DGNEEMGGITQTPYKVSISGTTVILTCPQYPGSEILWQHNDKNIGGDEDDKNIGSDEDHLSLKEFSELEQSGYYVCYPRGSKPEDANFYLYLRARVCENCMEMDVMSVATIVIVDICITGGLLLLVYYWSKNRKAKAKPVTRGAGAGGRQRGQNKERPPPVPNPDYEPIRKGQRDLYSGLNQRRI

Binder	MFI pH 6.0 [MFI]
B14	335
B15	1780
B16	5540
B17	3100
B18	1620
B19	2790
B20	651
B21	623
B22	897
B23	244
B24	2000
B25	897
B26	772
B27	59
B28	332

biological target: T2, human CD3 on CD3+ Jurkat cells; assay: flow cytometry, 100 nM IgG on CD3+ Jurkat cells, pH 7.4
In short: as §1

Binder	MFI pH 7.4 [MFI]
B14	45
B15	499
B16	5060
B17	232
B18	107
B19	1450
B20	44
B21	54
B22	35
B23	73
B24	84
B25	55
B26	56
B27	52
B28	55

biological target: T2, human CD3 on CD3+ Jurkat cells; assay: flow cytometry on CD3+ Jurkat cells, ratio of MFI at pH 6.0 to pH 7.4
In short: as §1

Binder	MFI pH 6.0/MFI pH 7.4
B14	7.4
B15	3.6
B16	1.1
B17	13.4
B18	15.1
B19	1.9
B20	14.7
B21	11.6
B22	25.9
B23	3.3
B24	23.8
B25	16.5
B26	13.8
B27	1.1
B28	6.1
